Among the data in paper PMC10127277, “Receptor Elimination by E3 Ubiquitin Ligase Recruitment (REULR): A Targeted Protein Degradation Toolbox” (ACS Synthetic Biology, 2023) are Kd values, retold here.

For this assay, the target named is T1, human RNF130 (GOLIATH) extracellular domain (human, UniProt Q86XS8 28-194, biotin (BirA biotinylation)).
T1 construct: RNF130 (GOLIATH), human, extracellular domain (ECD); also called RNF130 ECD; source: Expi293F, purified (Ni-NTA, size-exclusion chromatography), biotinylated with BirA; not shown: AVI, C-terminal, kept
T1 sequence (looked up): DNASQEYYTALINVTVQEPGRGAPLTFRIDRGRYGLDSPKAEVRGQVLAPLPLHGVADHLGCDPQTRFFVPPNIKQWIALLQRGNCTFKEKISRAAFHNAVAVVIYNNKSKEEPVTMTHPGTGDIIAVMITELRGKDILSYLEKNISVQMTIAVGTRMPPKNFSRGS
In words: SPR; Biacore T100; biotinylated ECD (ligand) captured on a streptavidin (SA) series S chip, ~100-200 RU; non-biotinylated VHH as analyte in HBS-P+ buffer, twofold dilutions from 500 nM (RNF128 E2, RNF130 D1) or 1000 nM (RNF43 C8); injection 60 s at 30 ul/min, dissociation 240 s; regeneration 1 x 10 sec glycine pH 2.5; 1:1 Langmuir model or equilibrium. The conditions noted are these: both partners purified.

B1: RNF130-D1 nanobody (VHH)
VHH: QVQLQESGGGLVQAGGSLRLSCAASGTISFIGYMGWYRQAPGKERELVASIASGTSTYYADSVKGRFTISRDNAKNTVYLQMNSLKPEDTAVYYCAATQYIQDVHRYWGQGTQVTVSS
notes: VHH selected from a synthetic yeast-display nanobody library against the human RNF130 ECD; Non-biotinylated analyte in SPR; source: Expi293F, purified (Ni-NTA, size-exclusion chromatography)
B1 came in with a Kd of 6.4 nM.
